Measured values from patent US7575910B2, “Method for producing L-fuculose and method for producing L-fucose” (priority 2004, dated 2009).

Assays:
NOX (NADH oxidase) = NOX (NADH oxidase) (Gluconobacter thailandicus, UniProt A0ABQ0IUG6); test: NOX activity: NADH/NADPH and flavin coenzyme specificity; type: biochemical, Gluconobacter oxydans IFO 3255; conditions: flavin 0 to 300 μM, FIG. 19
Procedure: The change in absorbance in the first minute was taken as an initial rate, and the activity was calculated therefrom. The experimental group without the enzyme source was used as a blank. […] The measurement was taken three consecutive times. Their mean value was taken and is shown in the figure with the standard deviation.
The concentration of flavin in the reaction solution was 0 to 300 μM, and the others were adjusted to standard conditions.
The Km value for the substrate was calculated by measuring the activity with a variety of substrate concentrations and drawing a Lineweaver-Burk plot of the results.

[1] = tested on: NADH oxidase activity in cell free extract of G. oxydans IFO 3255 sldA:Kmr mutant strain; test: NADH oxidation activity in acetobacterium cell-free extract; type: biochemical, Gluconobacter oxydans IFO 3255 sldA:Kmr; conditions: pH 8.0, 0.03 mM FAD
Excerpt: The group without the extract was used as a control.

FcDH = FcDH (Gluconobacter thailandicus, UniProt A0ABQ0IZX0); test: NAD and NADP specificity of FcDH; type: biochemical, Gluconobacter oxydans IFO 3255; conditions: data not shown
Procedure: The measurement was started when NAD was added. The change in absorbance in the first minute was taken as the initial rate, and the activity was calculated therefrom. […] The measurement was performed consecutively three times. Their mean value was taken and is shown in the figure with the standard deviation.
Since FcDH uses NAD as a coenzyme, the availability of NAD and NADP was measured. The activity was measured by adding NAD or NADP at various concentrations under standard conditions. The Km value for each coenzyme was calculated by drawing a Lineweaver-Burk plot of the results (FIG. 14 (B)).

[2] = substrate: C[C@H](O)[C@@H](O)[C@@H](O)[C@H](O)CO; test: purified protein, by the assay type; conditions: other: purified FcDH, substrate; Lineweaver-Burk plot; pH 9.5; 30.0 °C
[3] = substrate: OC[C@@H](O)C(O)[C@H](O)CO; test: purified protein, by the assay type; conditions: other: purified FcDH, substrate; Lineweaver-Burk plot; pH 9.5; 30.0 °C
[4] = substrate: OC[C@@H](O)[C@@H](O)[C@@H](O)CO; test: purified protein, by the assay type; conditions: other: purified FcDH, substrate; Lineweaver-Burk plot; pH 9.5; 30.0 °C
[5] = substrate: OC[C@@H](O)[C@H](O)[C@@H](O)CO; test: purified protein, by the assay type; conditions: other: purified FcDH, substrate; Lineweaver-Burk plot; pH 9.5; 30.0 °C
[6] = substrate: OC[C@@H](O)[C@@H](O)[C@H](O)[C@@H](O)CO; test: Substrate specificity of purified FcDH (kcat, Km by Lineweaver-Burk plot); type: biochemical, Gluconobacter oxydans IFO 3255; conditions: other: purified FcDH, pH 9.5, 30.0 °C
Procedure: (§1) The measurement was started when NAD was added. […] The measurement was performed consecutively three times.
(§2) Values of kcat and Km for each substrate were obtained by measuring the initial rate of the reaction with various substrate concentrations and drawing a Lineweaver-Burk plot of the results.
(§3) Lineweaver-Burk plots of the results in (A) and (B) are shown in FIG. 12 (C) and (D), respectively. The Km and kcat values were calculated from the range in which substrate inhibition was not observed, i.e., from a straight line represented by a broken line in FIG. 12 (C) and (D).

[7] = substrate: OC[C@@H](O)[C@@H](O)[C@H](O)[C@H](O)CO; test: as above; type: biochemical, Gluconobacter oxydans IFO 3255; conditions: other: purified FcDH, pH 9.5, 30.0 °C
Procedure: as §1, §2, §3

[8] = substrate: OC[C@@H](O)[C@H](O)[C@H](O)[C@@H](O)CO; test: as above; type: biochemical, Gluconobacter oxydans IFO 3255; conditions: other: purified FcDH, pH 9.5, 30.0 °C
Procedure: as §1, §2, §3

Chain of NOX (NADH oxidase) (A0ABQ0IUG6 entry or part of it): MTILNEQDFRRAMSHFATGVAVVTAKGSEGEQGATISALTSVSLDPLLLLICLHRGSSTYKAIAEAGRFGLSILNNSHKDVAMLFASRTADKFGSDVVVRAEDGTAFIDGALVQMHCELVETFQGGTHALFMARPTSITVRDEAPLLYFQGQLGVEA

Cc1cc2nc3c(=O)[nH]c(=O)nc-3n(C[C@H](O)[C@H](O)[C@H](O)COP(=O)(O)OP(=O)(O)OC[C@H]3O[C@@H](n4cnc5c(N)ncnc54)[C@H](O)[C@@H]3O)c2cc1C [FAD]
NOX activation effect of flavin coenzyme (NOX (NADH oxidase)): NOX activation effect was observed
effect of FAD addition on NADH oxidation activity [1]: facilitated this activity

NC(=O)c1ccc[n+]([C@H]2O[C@@H](COP(=O)([O-])OP(=O)(O)OC[C@H]3O[C@@H](n4cnc5c(N)ncnc54)[C@H](OP(=O)(O)O)[C@@H]3O)[C@H](O)[C@@H]2O)c1 [NADP]
FcDH activity with NADP as the coenzyme (FcDH): no significant activity

B1: FcDH (L-fuculose-producing L-fucitol dehydrogenase) (Gluconobacter thailandicus NBRC 3257) (protein)
chain: MYMEKLRLDGRTAVVTGGAQNIGLACVTALAEAGARVVIADLDEAMAAQSAEELCAEGLDVRSIRMDVTSMENVQAAIKTLHEQEGHLDILVACAGICISEVKAEDMTEGQWLKQVDINLNGMFRCCQAVGRIMLEQKKGAIVAIGSMSGQIVNRPQQQAAYNASKAGVHQYIRSLAAEWAPYGIRANAVAPTYIETTLTRFGMEKPELYDAWIAGTPMGRVGQPDEVASVVHFLASDAASLMTGSIVNVDAGFTVW
Km [2]: 31.9 mM
Km [3]: 1.3 mM
Km [4]: 20.4 mM
Km [5]: 31.9 mM
Km [6]: 22.4 mM
Km [7]: 30.2 mM
Km [8]: 30.5 mM
